Assay results as given in patent US20230272048A1 (UNIVERSITY OF MELBOURNE, published 2023).

B1: MEL-1872 (antibody)
VH: KVQLRESGPSLVKPSQTLSLTCTASGFSLSDKAVGWVRQAPGQPLEWLGTIDTTGNAVYNPGLKSRLSITKDNSKSQVSLSLSSVTTEDSATYHCSTVHQKTRRSCPSDYSFICDCEGTGSHCCRASNCPYYCNYGRDRMCTGRSNIHEWHVDAWGQGLLVTVSS
VL: QAVLTQPSSVSGSLGQRVSTTCSGSSSNVGNGYVSWYQLIPGSAPRTLIYGDTSRASGVPDRFSGSRSGNTVTLTISSLQAEDEADYFCASAEDGSSNAVFGRGTTLTV
notes: also called H 1872; BrNAb MEL-1872
B2: MEL-2129 (antibody)
VH: KVQLRESGPSLVKPSQTLSLTCTASGFSLSDKAVGWVRQAPGKALEWLGSIDTGGNAGYNPGLKSRLSITKGNSKSQVSLSVSSVTTEDSATYYCSTVHQKTRRSCPVDYYYSCDCEGSGSHCCSASNCPYYCKYGRDRVCTDKHTYSYEWYVDAWGQGLLVTVSS
VL: B1 VL
notes: also called BrNAb MEL-2129
B3: MEL-1842 (antibody)
VH: KVQLQESGPSLVKPSQTLSLTCTASGFSLSDKAVGWVRQAPGQALEWLGSIDTGGNADYNPGLKSRLSITKDNAKSQVSLSVSSVTTEGSATYYCSTVHQKTLRSCPSDYPYICDCEDTGSHCCRATNCPYYCNHGRDRMCTGRTYTYEWHVEAWGQGLLVTVSS
VL: B1 VL
notes: also called H 1842; BrNAb MEL-1842

Experiments:
L179A = target: T1, L179A (HIV-1); experiment: capture ELISA on Env of lysed AD8 pseudovirus, % of WT
T1 construct: full-length Env of lysed pseudovirus; HXB-2 numbering

D185A = target: T2, D185A (HIV-1); experiment: as above
T2 construct: full-length Env of lysed pseudovirus; HXB-2 numbering

S365A = target: T3, S365A (HIV-1); experiment: as above
T3 construct: full-length Env of lysed pseudovirus; HXB-2 numbering

S364A = target: T4, S364A (HIV-1); experiment: as above
T4 construct: full-length Env of lysed pseudovirus; HXB-2 numbering

M475A = target: T5, M475A (HIV-1); experiment: as above
T5 construct: full-length Env of lysed pseudovirus; HXB-2 numbering

G472A = target: T6, G472A (HIV-1); experiment: as above
T6 construct: full-length Env of lysed pseudovirus; HXB-2 numbering

K282A = target: T7, K282A (HIV-1); experiment: as above
T7 construct: full-length Env of lysed pseudovirus; HXB-2 numbering

R419A = target: T8, R419A (HIV-1); experiment: as above
T8 construct: full-length Env of lysed pseudovirus; HXB-2 numbering

N283A = target: T9, N283A (HIV-1); experiment: as above
T9 construct: full-length Env of lysed pseudovirus; HXB-2 numbering

N262A = target: T10, N262A (HIV-1); experiment: as above
T10 construct: full-length Env of lysed pseudovirus; HXB-2 numbering

P313A = target: T11, P313A (HIV-1); experiment: as above
T11 construct: full-length Env of lysed pseudovirus; HXB-2 numbering

Q363A = target: T12, Q363A (HIV-1); experiment: as above
T12 construct: full-length Env of lysed pseudovirus; HXB-2 numbering

A329K = target: T13, A329K (HIV-1); experiment: as above
T13 construct: full-length Env of lysed pseudovirus; HXB-2 numbering

E87A = target: T14, E87A (HIV-1); experiment: as above
T14 construct: full-length Env of lysed pseudovirus; HXB-2 numbering

K121A = target: T15, K121A (HIV-1); experiment: as above
T15 construct: full-length Env of lysed pseudovirus; HXB-2 numbering

N197A = target: T16, N197A (HIV-1); experiment: as above
T16 construct: full-length Env of lysed pseudovirus; HXB-2 numbering

M373A = target: T17, M373A (HIV-1); experiment: as above
T17 construct: full-length Env of lysed pseudovirus; HXB-2 numbering

R476A = target: T18, R476A (HIV-1); experiment: as above
T18 construct: full-length Env of lysed pseudovirus; HXB-2 numbering

N276A = target: T19, N276A (HIV-1); experiment: as above
T19 construct: full-length Env of lysed pseudovirus; HXB-2 numbering

P369A = target: T20, P369A (HIV-1); experiment: as above
T20 construct: full-length Env of lysed pseudovirus; HXB-2 numbering

CenpB = target: T21, CenpB (human, UniProt P07199 1-599); experiment: single autoantigen ELISA (AESKULISA ANA-8Pro), FIG. 9A
T21 sequence (looked up): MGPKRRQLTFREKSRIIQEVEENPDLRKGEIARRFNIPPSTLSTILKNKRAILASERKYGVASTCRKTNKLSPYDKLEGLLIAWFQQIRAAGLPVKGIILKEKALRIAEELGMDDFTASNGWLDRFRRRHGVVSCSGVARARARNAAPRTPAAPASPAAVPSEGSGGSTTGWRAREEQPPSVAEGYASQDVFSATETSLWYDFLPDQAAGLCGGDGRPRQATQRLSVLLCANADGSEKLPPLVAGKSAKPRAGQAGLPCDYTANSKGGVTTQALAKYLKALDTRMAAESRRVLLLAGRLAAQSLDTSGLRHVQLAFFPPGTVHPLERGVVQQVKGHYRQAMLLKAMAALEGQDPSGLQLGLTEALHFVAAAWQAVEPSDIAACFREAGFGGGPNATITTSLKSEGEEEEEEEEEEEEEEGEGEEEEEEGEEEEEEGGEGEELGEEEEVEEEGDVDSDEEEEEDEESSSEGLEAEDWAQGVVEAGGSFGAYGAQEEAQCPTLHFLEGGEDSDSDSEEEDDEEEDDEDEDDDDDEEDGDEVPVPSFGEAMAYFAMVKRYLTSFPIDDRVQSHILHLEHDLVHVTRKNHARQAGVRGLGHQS
Source text: Polyreactivity assay: Single autoantigen reactivity. […] ANA-8Pro (Aesku) for U1-ribonucleoprotein (RNP), SnRNP/Sm, Sm, SS-A, SS-B, Jo-1, Scl-70, and CenpB. The 96 wells were coated with these cellular and nuclear antigens for the qualitative detection of mAbs reactivity. The cut-off calibrator, negative control and positive control were provided by the manufacturer.

Binder | Env binding (%) at antibody EC50 (L179A) | Env binding (%) at antibody EC50 (D185A) | Env binding (%) at antibody EC50 (S365A) | Env binding (%) at antibody EC50 (S364A) | Env binding (%) at antibody EC50 (M475A) | Env binding (%) at antibody EC50 (G472A) | Env binding (%) at antibody EC50 (K282A) | Env binding (%) at antibody EC50 (R419A) | Env binding (%) at antibody EC50 (N283A) | Env binding (%) at antibody EC50 (N262A) | Env binding (%) at antibody EC50 (P313A) | Env binding (%) at antibody EC50 (Q363A) | Env binding (%) at antibody EC50 (A329K) | Env binding (%) at antibody EC50 (E87A) | Env binding (%) at antibody EC50 (K121A) | Env binding (%) at antibody EC50 (N197A) | Env binding (%) at antibody EC50 (M373A) | Env binding (%) at antibody EC50 (R476A) | Env binding (%) at antibody EC50 (N276A) | Env binding (%) at antibody EC50 (P369A) | further results
B1 | 110% | 99% | 70% | 75% | 82% | 29% | 63% | 108% | 76% | 27% | 100% | 93% | 38% | 87% | 94% | 92% | 102% | 57% | 100% | 88% | –
B2 | 101% | 93% | 126% | 42% | 63% | 15% | 85% | 93% | 64% | 18% | 84% | 79% | 46% | 81% | 80% | 82% | 92% | 64% | 89% | 81% | binding result (CenpB): no binding (tested: 100 µg/ml)
B3 | 110% | 100% | 37% | – | 99% | 39% | 84% | 110% | 82% | 44% | 100% | 97% | 101% | 108% | 107% | 93% | 102% | 81% | 100% | 94% | binding result (CenpB): no binding (tested: 100 µg/ml)
